This experiment has as its target CUL2^ZYG11B (residues 490–728) (human) (UniProt Q9C0D3). Kind of experiment: ITC; MicroCal iTC200; peptides (0.5–1 mmol/L) in the syringe, CUL2^ZYG11B(490–728) (0.03 mmol/L) in the cell; 18 injections of 2 μL; repeated 3 times. (In general: Isothermal titration calorimetry measures the heat released or taken up as one component is titrated into another.)

CUL2^ZYG11B (residues 490–728) (human), sequence (Q9C0D3 490-728): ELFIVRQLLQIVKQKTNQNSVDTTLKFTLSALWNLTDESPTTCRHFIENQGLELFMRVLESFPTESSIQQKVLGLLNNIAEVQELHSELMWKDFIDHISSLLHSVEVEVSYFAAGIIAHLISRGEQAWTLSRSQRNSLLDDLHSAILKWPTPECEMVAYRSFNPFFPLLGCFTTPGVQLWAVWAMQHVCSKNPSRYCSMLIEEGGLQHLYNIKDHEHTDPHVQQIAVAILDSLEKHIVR

SARS-CoV-2 ORF10 N5 peptide G1A gave a fold decrease of binding against ORF10 N5 of 4 fold.

Take SARS-CoV-2 ORF10 N5 peptide G1S: the fold decrease of binding against ORF10 N5 was 4 fold.

Usually Kd stands for the constant that tells how readily two partners part at equilibrium. On to SARS-CoV-2 ORF10 N5 peptide I3A, for which the Kd was found to be 5.61 µM.

The substance SARS-CoV-2 ORF10 N5 peptide I3F returned a Kd of 0.87 µM.

As to SARS-CoV-2 ORF10 N5 peptide N4A, the Kd is 0.59 µM.

On to SARS-CoV-2 ORF10 N5 peptide Y2A, for which the Kd was 25.2 µM.

Substance SARS-CoV-2 ORF10 N5 peptide Y2F showed a dissociation constant (Kd) of 4.73 µM.

The values above are taken from PMC11413682.
